From patent US20250145729A1 (DENALI THERAPEUTICS, published 2025) come the findings set out here.

In assay [1] the target is T1, human CD98hc (human, UniProt P08195 109-529).
T1 construct: also called huCD98hc; CD98 heavy chain
T1 sequence: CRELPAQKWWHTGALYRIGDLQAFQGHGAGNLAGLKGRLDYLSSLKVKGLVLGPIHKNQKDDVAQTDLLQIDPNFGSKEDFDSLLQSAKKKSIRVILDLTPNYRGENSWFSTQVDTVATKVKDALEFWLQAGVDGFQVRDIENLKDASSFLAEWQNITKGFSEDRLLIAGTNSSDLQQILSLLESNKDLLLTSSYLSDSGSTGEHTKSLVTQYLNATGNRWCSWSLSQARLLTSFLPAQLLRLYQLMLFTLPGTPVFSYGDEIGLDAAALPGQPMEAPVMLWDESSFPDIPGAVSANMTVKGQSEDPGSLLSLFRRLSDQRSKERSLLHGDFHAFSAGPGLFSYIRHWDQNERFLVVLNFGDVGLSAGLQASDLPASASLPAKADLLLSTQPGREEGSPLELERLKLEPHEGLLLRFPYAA
Description: affinity as listed in study design table; method not given there; Bivalent, NBF Fabs.

The target of assay [2] is T2, circularly permuted human TfR apical domain (human, biotin on the Avi tag).
T2 construct: a linker between the two segments is not described; also called huTfR apical domain; not shown: Avi tag and PreScission site left after Ulp1 cleavage
T2 chain: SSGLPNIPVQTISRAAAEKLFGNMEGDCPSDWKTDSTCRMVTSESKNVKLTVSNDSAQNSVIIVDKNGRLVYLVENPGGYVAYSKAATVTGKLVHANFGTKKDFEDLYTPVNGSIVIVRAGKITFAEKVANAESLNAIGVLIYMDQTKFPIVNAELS
The assay is described as follows: SPR. On the procedure:
(§1) Biacore™ Series S CM5 sensor chips were immobilized with anti-human Fab (GE Healthcare, 28958325). Molecules were captured on each flow cell and serial 3-fold dilutions of human TfR apical domain (2, 0.67, 0.22, 0.074, 0.025, and 0 μM) and cynomologous TfR apical domain (4, 1.3, 0.44, 0.15, 0.05, and 0 μM) were injected at a flow rate of 30 μL/min using single cycle kinetics method. Each sample was analyzed with a 60-second association and a 3-minute dissociation. After each cycle, the chip was regenerated using 10 mM glycine-HCl (pH 2.1) for 30 seconds at 50 μL/min. Binding response was corrected by subtracting the RU from a reference flow cell. A 1:1 Langmuir model of simultaneous fitting of kₒₙ and koff was used for kinetics analysis using Biacore™ 8K Evaluation Software. Table 32A below summarizes the binding affinities of selected clones for human and cynomolgus TfR apical domains.
(§2) The phage library was panned against biotinylated human TfR apical domain immobilized to magnetic streptavidin beads. Four rounds of phage panning were performed and enriched clones were sequenced. Unique hits were cloned onto an anti-BACE1 hIgG1 monoclonal antibody containing the “LALA” mutations, expressed in HEK293 cells, and purified by protein A chromatography. Affinity to human and cyno TfR apical domain was measured by SPR. Clones were evaluated for TfR-specific cell binding (FIGS. 43A and 43B).
Background: SPR reads the build-up and loss of mass on a sensor chip optically.

Assay [3] has as its target T3, circularly permuted cyno TfR apical domain (cynomolgus monkey, biotin on the Avi tag).
T3 construct: a linker between the two segments is not described; also called cyTfR apical domain; not shown: Avi tag and PreScission site left after Ulp1 cleavage
T3 chain: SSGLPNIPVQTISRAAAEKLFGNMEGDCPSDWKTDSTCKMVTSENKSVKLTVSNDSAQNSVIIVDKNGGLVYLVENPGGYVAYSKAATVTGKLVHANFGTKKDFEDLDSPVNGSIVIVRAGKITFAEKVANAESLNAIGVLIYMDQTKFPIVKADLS
The assay is described as follows: SPR. On the procedure:
as §1, §2

Assay [4] has as its target T4, human TfR on HEK293T cells (human, UniProt P02786 1-760).
T4 construct: also called huTfR expressing cells; human TfR-positive cells
The assay is described as follows: cell uptake at 37 C into HEK293T human TfR positive cells, anti-human IgG staining, imaging (corrected spot intensity). On the procedure: (§3) HEK293T, CHO:cyTfR, and CHO cells were plated at 40,000 cells/well of 96-well plates in standard growth media (DMEM (Gibco™ 11995073)+10% FBS (VWR 89510⁻¹⁸⁸)+1×Pen/Strep (Gibco 15140122)). Approximately 24 hours later, molecules were diluted into standard growth media warmed to 37° C. Old media was removed from the cells, and the diluted molecules were added to the cells. Cells were incubated at 37° C. for 45 minutes. Cells were then washed with PBS and then fixed for 10 minutes in 4% PFA (Electron Microscopy Sciences 15714-S). Cells were washed with PBS and then blocked with 5% BSA, 0.3% TritonX100 in PBS for 30 minutes. […] Cells were washed with PBS, imaged on an Opera Phenix, and images were analyzed with Harmony software.

For assay [5], the target named is T5, cynomolgus monkey TfR on CHO cells (cynomolgus monkey, UniProt Q5RDH6 1-760 (Pongo abelii entry)).
T5 construct: also called CHO:cyTfR; cyTfR expressing cells
T5 chain: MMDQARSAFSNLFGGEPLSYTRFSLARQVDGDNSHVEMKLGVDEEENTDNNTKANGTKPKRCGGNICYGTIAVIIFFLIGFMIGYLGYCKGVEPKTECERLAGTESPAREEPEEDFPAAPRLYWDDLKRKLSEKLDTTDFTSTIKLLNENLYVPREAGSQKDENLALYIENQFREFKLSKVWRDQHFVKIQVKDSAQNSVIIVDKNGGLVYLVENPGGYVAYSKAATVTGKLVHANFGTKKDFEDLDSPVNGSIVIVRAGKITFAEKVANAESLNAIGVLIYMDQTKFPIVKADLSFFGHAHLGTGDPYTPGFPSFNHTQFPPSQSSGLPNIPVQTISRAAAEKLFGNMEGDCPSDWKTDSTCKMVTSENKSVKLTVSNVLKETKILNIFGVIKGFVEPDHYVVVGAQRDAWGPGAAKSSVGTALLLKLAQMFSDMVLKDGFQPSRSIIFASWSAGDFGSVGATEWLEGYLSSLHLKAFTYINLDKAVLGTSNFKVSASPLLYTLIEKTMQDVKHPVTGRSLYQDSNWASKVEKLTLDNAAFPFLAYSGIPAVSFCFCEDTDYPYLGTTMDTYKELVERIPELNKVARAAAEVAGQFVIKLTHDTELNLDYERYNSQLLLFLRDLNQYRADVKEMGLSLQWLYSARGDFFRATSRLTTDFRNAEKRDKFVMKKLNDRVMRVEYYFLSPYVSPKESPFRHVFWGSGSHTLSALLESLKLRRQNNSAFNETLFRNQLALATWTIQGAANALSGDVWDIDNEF
Description: cell uptake at 37 C into CHO cells expressing cynomolgus monkey TfR, anti-human IgG staining, imaging (corrected spot intensity). As to the method: as §3

In assay [6] the target is T1, human CD98hc. Description: affinity as listed in study design table; method not given there.
Assay [7] concerns the target T1, human CD98hc. The assay is described as above. The source holds these as a separate data set.
Assay [8] deals with T1, human CD98hc. The description is as above. The source holds these as a separate data set.
In assay [9] the target is T6, TfR (Homo sapiens (Human), UniProt P02786 121-760, limits assumed).
T6 construct: also called transferrin receptor
The assay is described as follows: Biacore, control sample kept in PBS. On the procedure:
(§4) Clone 6.5.11.5.42.2, with and without LS mutations, was assessed for low pH stability during developability assessment. The tested proteins are bivalent Fc-Fab fusion polypeptides comprising an anti-HER2 Fab domain linked to two Fc polypeptides each having the sequence of the identified clone and LALA mutations, with LS mutations or without LS mutations. An Fc control containing the anti-HER2 Fab domain linked to an Fc domain with LALA mutations and without TfR-binding sites was included for comparison.
(§5) Aliquots (100 μL) of each clone were added to wells of a 96-well plate containing 6 μL of 5% (v/v) acetic acid and mixed well. The plate was sealed and incubated at room temperature for about three (3) hours. Subsequently, 35 μL of 1 M Tris HCl (pH 7.5) was added to the samples and mixed well. The plate was sealed once again and incubated at room temperature for 24 hours. Control condition was storage in 1× PBS without any change in pH during incubation. The samples were then analyzed by Biacore for binding affinity and by size exclusion chromatography to detect intact fusion protein. FIG. 22 and Table 26 provide the results of the analyses.

The target of assay [10] is T6, TfR. Description: Biacore, after low pH hold and neutralisation. On the procedure:
as §4, §5

B1: Clone 4: LLB1-3 D380E bivalent, non-binding Fabs (Fc fusion)
chain: APELLGGPSVFLFPPKPKDTLMISRTPEVTCVVVDVSHEDPEVKFNWYVDGVEVHNAKTKPREEQYNSTYRVVSVLTVLHQDWLNGKEYKCKVSNKALPAPIEKTISKAKGQPREPQVYTLPPSRDELTKNQVSLTCLVKGFYPSDIAVEWRSYKPYENNYKTTPPVLDSDGSFFLYSKLTVDKSRWQQGNIFVCDVMHEALHNHYTIKKLSLSPGK
notes: bivalent; effector positive
As for B1, the Kd with human CD98hc [1] worked out at 1 µM.

B2: Clone 1 with LALA (Fc fusion)
chain: APEAAGGPSVFLFPPKPKDTLMISRTPEVTCVVVDVSHEDPEVKFNWYVDGVEVHNAKTKPREEQYNSTYRVVSVLTVLHQDWLNGKEYKCKVSNKALPAPIEKTISKAKGQPREPQVYTLPPSRDELTKNQVSLTCLVKGFYPSDIAVKWGSEVAPENNYKTTPPVLDSDGSFFLYSKLTVDKSRWQQGNIFACTVMHEALHNHYTLKMLSLSPGK
notes: Fc part only
With B2, the Kd in assay [2] was found to be 0.48 µM; in assay [3], 1.8 µM. The binding result in assay [4] and in [5] was “binds” each time.

B3: Clone 3 with LALA (Fc fusion)
chain: APEAAGGPSVFLFPPKPKDTLMISRTPEVTCVVVDVSHEDPEVKFNWYVDGVEVHNAKTKPREEQYNSTYRVVSVLTVLHQDWLNGKEYKCKVSNKALPAPIEKTISKAKGQPREPQVYTLPPSRDELTKNQVSLTCLVKGFYPSDIAVLWGSAVAPENNYKTTPPVLDSDGSFFLYSKLTVDKSRWQQGNVFACTVMHEALHNHYTVKGLSLSPGK
notes: Fc part only
Consider B3, for which the Kd in [2] is 1.5 µM; in [3], 6 µM. For the same molecule, the binding result in assay [4] and in assay [5] was “binds” in each case.

B4: Clone 1: LLB2-10-8 bivalent, BACE1 Fabs (Fc fusion)
chain: APELLGGPSVFLFPPKPKDTLMISRTPEVTCVVVDVSHEDPEVKFNWYVDGVEVHNAKTKPREEQYNSTYRVVSVLTVLHQDWLNGKEYKCKVSNKALPAPIEKTISKAKGQPREPQVYTLPPSRDELTKNQVSLTCLVKGFYPSDIAVLWNSRFVLENNYKTTPPVLDSDGSFFLYSKLTVDKSRWQQGEIFACNVYHEALHNHYTFKNLALSPGK
notes: bivalent; effector positive
Regarding B4, in the assay with human CD98hc [6], the Kd is 0.1 to 0.2 µM.

B5: Clone 26: LLB2-10-8 bivalent, non-binding Fabs (Fc fusion)
chain: APELLGGPSVFLFPPKPKDTLMISRTPEVTCVVVDVSHEDPEVKFNWYVDGVEVHNAKTKPREEQYNSTYRVVSVLTVLHQDWLNGKEYKCKVSNKALPAPIEKTISKAKGQPREPQVYTLPPSRDELTKNQVSLTCLVKGFYPSDIAVLWNSRFVLENNYKTTPPVLDSDGSFFLYSKLTVDKSRWQQGEIFACNVYHEALHNHYTFKNLALSPGK
notes: bivalent; effector positive
For the molecule B5, the Kd in the assay with human CD98hc [7] and with human CD98hc [8] was 0.1 to 0.2 µM in each case.

B6: Clone 28: LLB2-37 bivalent, non-binding Fabs (Fc fusion)
chain: APELLGGPSVFLFPPKPKDTLMISRTPEVTCVVVDVSHEDPEVKFNWYVDGVEVHNAKTKPREEQYNSTYRVVSVLTVLHQDWLNGKEYKCKVSNKALPAPIEKTISKAKGQPREPQVYTLPPSRDELTKNQVSLTCLVKGFYPSDIAVLWNSQFHLENNYKTTPPVLDSDGSFFLYSKLTVDKSRWQQGNIFACNVYHEALHNHYTFKNLLLSPGK
notes: bivalent; effector positive
Take B6: the Kd with human CD98hc [7] came to 0.39 µM.

B7: 42.2 LALA (bivalent clone 6.5.11.5.42.2 with LALA, anti-HER2 Fab) (Fc fusion)
chain: APEAAGGPSVFLFPPKPKDTLMISRTPEVTCVVVDVSHEDPEVKFNWYVDGVEVHNAKTKPREEQYNSTYRVVSVLTVLHQDWLNGKEYKCKVSNKALPAPIEKTISKAKGQPREPQVYTLPPSRDELTKNQVSLTCLVKGFYPSDIAVEWFSDGSKETNYKTTPPVLDSDGSFFLYSKLTVDKSRWQQGNLFACEVMHEALHNHYTYKLLSLSPGK
Regarding B7, the Kd came to 1.17 µM in the assay with TfR [9] and 1.18 µM with TfR [10].

B8: 42.2 LALA LS (bivalent clone 6.5.11.5.42.2 with LALA and LS, anti-HER2 Fab) (Fc fusion)
chain: APEAAGGPSVFLFPPKPKDTLMISRTPEVTCVVVDVSHEDPEVKFNWYVDGVEVHNAKTKPREEQYNSTYRVVSVLTVLHQDWLNGKEYKCKVSNKALPAPIEKTISKAKGQPREPQVYTLPPSRDELTKNQVSLTCLVKGFYPSDIAVEWFSDGSKETNYKTTPPVLDSDGSFFLYSKLTVDKSRWQQGNLFACEVLHEALHSHYTYKLLSLSPGK
With B8, the Kd is 1.7 µM in the assay with TfR [9] and 1.81 µM with TfR [10].
